Assay results reported in PMC2173428.

Molecular target: His-tagged full-length ActA (ActA[1–584Rhis]) (Listeria monocytogenes)
Experiment: co-sedimentation

Sequence of His-tagged full-length ActA (ActA[1–584Rhis]) (Listeria monocytogenes) (P33379 30-613 limits assumed): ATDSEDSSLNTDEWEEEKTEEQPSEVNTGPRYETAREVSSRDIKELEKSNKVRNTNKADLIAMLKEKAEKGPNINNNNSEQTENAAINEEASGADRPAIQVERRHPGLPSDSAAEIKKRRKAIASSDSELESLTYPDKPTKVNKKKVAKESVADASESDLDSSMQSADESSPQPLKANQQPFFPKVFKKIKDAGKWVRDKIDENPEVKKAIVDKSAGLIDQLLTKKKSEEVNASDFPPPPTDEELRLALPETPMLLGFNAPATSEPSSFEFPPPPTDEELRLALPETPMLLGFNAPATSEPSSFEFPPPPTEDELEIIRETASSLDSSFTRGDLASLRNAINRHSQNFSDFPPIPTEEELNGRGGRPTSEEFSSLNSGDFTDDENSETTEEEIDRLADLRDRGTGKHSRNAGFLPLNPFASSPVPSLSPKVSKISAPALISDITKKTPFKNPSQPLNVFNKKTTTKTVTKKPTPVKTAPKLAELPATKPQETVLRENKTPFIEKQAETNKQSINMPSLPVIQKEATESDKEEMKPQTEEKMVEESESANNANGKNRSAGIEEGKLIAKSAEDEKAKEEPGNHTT

His-tagged human vasodilator-stimulated phosphoprotein (VASP) (from UniProt P50552 1-380) (natural protein)
percent bound: > 90%
